{
  "source": "patent US20200216495A1",
  "about": "(ADRX, published 2020)",
  "note": "“And” between values parts separate entries of the source, which are not always exact repeats. Equal entries are not always repeated. Square brackets hold non-standard residues; d marks the D form. Ends that are not written are not given here. dCha = N[C@H](CC1CCCCC1)C(=O)O; dNle = CCCC[C@@H](N)C(=O)O",
  "data": [
    {"target": "Tau40 P301L protein (human)", "test": "cell-based or functional assay", "values": [
      {"binder": "[dE][dK][dI][dR][dI][dH][dY][dH]", "note": "[ekirihyh]", "IC50, Tau40 assay (ThT)": "7.42 µM"},
      {"binder": "[dE][dL][dK][dI][dV][dW]", "note": "[elkivw]", "IC50, Tau40 assay (ThT)": "16 µM and 16.6 µM"},
      {"binder": "[dA][dR][dL][dK][dA][dR][dW]", "note": "[arlkarw]", "IC50, Tau40 assay (ThT)": "11.2 µM"},
      {"binder": "[dW][dK][dV][dP][dV][dR][dY][dW]", "note": "[wkvpvryw]", "IC50, Tau40 assay (ThT)": "19 µM and 19.8 µM"},
      {"binder": "[dW][dE][dV][dQ][dV][dE][dW]", "note": "[wevqvew]", "IC50, Tau40 assay (ThT)": "11.7 µM"},
      {"binder": "[dW][dR][dA][dK][dA][dR][dW]", "note": "[wrakarw]", "IC50, Tau40 assay (ThT)": "12.7 µM"},
      {"binder": "[dL][dK][dT][dR][dI][dH][dY]", "note": "[lktrihy]", "IC50, Tau40 assay (ThT)": "12.5 µM"},
      {"binder": "[dW][dK][dV][dW]G[dR][dV][dW] (not fully specified (residue 5); printed as wkvwgrvw)", "note": "[wkvwgrvw]", "IC50, Tau40 assay (ThT)": "8.42 µM and 14.1 µM"},
      {"binder": "[dW][dI][dK][dI][dV][dR]", "note": "[wikivr]", "IC50, Tau40 assay (ThT)": "6.97 µM"},
      {"binder": "[dT][dW][dR][dL][dV][dL]", "note": "[twrlvl]", "IC50, Tau40 assay (ThT)": "7.46 µM"},
      {"binder": "[dW][dR][dE][dK][dV][dR][dW][dW]", "note": "[wrekvrww]", "IC50, Tau40 assay (ThT)": "19.3 µM"},
      {"binder": "[dL][dK][dI][dR][dI][dE][dY][dH]", "note": "[lkirieyh]", "IC50, Tau40 assay (ThT)": "8.14 µM"},
      {"binder": "[dW][dR][dL][dR][dI][dH][dE]", "note": "[wrlrihe]", "IC50, Tau40 assay (ThT)": "10 µM"},
      {"binder": "[dF][dH][dL][dE][dI][dR][dH][dW]", "note": "[fhleirhw]", "IC50, Tau40 assay (ThT)": "6.87 µM"},
      {"binder": "[dI][dR][dI][dH][dY][dH][dL][dK]", "note": "[irihyhlk]", "IC50, Tau40 assay (ThT)": "7.39 µM"},
      {"binder": "[dI][dH][dY][dH][dL][dK][dI][dR]", "note": "[ihyhlkir]", "IC50, Tau40 assay (ThT)": "9.7 µM"},
      {"binder": "[dW][dK][dL][dK][dL][dW][dW][dW]", "note": "[wklklwww]", "IC50, Tau40 assay (ThT)": "9.91 µM and 10.8 µM"},
      {"binder": "[dF][dK][dI][dE][dI][dE][dY][dH]", "note": "[fkieieyh]", "IC50, Tau40 assay (ThT)": "10.3 µM"},
      {"binder": "[dK][dL][dK][dI][dK][dW]", "note": "[klkikw]", "IC50, Tau40 assay (ThT)": "6.87 µM"},
      {"binder": "[dL][dE][dF][dE][dL][dK][dY][dW]", "note": "[lefelkyw]", "IC50, Tau40 assay (ThT)": "19.7 µM"},
      {"binder": "[dW][dF][dL][dR][dI][dH][dW]", "note": "[wflrihw]", "IC50, Tau40 assay (ThT)": "8.71 µM"},
      {"binder": "[dF][dR][dL][dR][dI][dW][dW][dF]", "note": "[frlriwwf]", "IC50, Tau40 assay (ThT)": "6.85 µM and 10.8 µM"},
      {"binder": "[dF][dR][dL][dK][dI][dR][dW]", "note": "[frlkirw]", "IC50, Tau40 assay (ThT)": "11.7 µM and 12.2 µM"},
      {"binder": "[dW][dW][dL][dK][dL][dR][dW][dW]", "note": "[wwlklrww]", "IC50, Tau40 assay (ThT)": "7.64 µM"},
      {"binder": "[dL][dK][dA][dR][dI][dH][dY][dH]", "note": "[lkarihyh]", "IC50, Tau40 assay (ThT)": "10.4 µM"},
      {"binder": "[dW][dD][dL][dD][dV][dR][dW]", "note": "[wdldvrw]", "IC50, Tau40 assay (ThT)": "14 µM"},
      {"binder": "[dA][dR][dA][dR][dI][dH][dW]", "note": "[ararihw]", "IC50, Tau40 assay (ThT)": "12.6 µM"},
      {"binder": "[dR][dI][dR][dL][dH][dW]", "note": "[rirlhw]", "IC50, Tau40 assay (ThT)": "6.97 µM"},
      {"binder": "[dW][dE][dL][dK][dV][dE][dW]", "note": "[welkvew]", "IC50, Tau40 assay (ThT)": "10 µM"},
      {"binder": "[dR][dL][dK][dV][dW][dW]", "note": "[rlkvww]", "IC50, Tau40 assay (ThT)": "7.01 µM"},
      {"binder": "[dW][dR][dL][dK][dV][dR]", "note": "[wrlkvr]", "IC50, Tau40 assay (ThT)": "18.5 µM"},
      {"binder": "[dR][dL][dR][dI][dH][dW]", "note": "[rlrihw]", "IC50, Tau40 assay (ThT)": "6.87 µM"},
      {"binder": "[dF][dK][dL][dK][dL][dW][dW][dF]", "note": "[fklklwwf]", "IC50, Tau40 assay (ThT)": "7.22 µM and 15 µM"},
      {"binder": "[dT][dL][dK][dI][dE][dW]", "note": "[tlkiew]", "IC50, Tau40 assay (ThT)": "8.08 µM"},
      {"binder": "[dA][dW][dA][dK][dV][dR][dW]", "note": "[awakvrw]", "IC50, Tau40 assay (ThT)": "8.38 µM"},
      {"binder": "[dI][dL][dK][dI][dV][dW]", "note": "[ilkivw]", "IC50, Tau40 assay (ThT)": "9.32 µM"},
      {"binder": "[dW][dK][dV][dW]G[dK][dV][dW] (not fully specified (residue 5); printed as wkvwgkvw)", "note": "[wkvwgkvw]", "IC50, Tau40 assay (ThT)": "10.4 µM and 10.6 µM"},
      {"binder": "[dW][dR][dV][dH][dF][dE][dH][dW]", "note": "[wrvhfehw]", "IC50, Tau40 assay (ThT)": "6.86 µM"},
      {"binder": "[dW][dR][dH][dK][dH][dR][dW]", "note": "[wrhkhrw]", "IC50, Tau40 assay (ThT)": "19.2 µM"},
      {"binder": "[dW][dE][dL][dK][dV][dR][dW]", "note": "[welkvrw]", "IC50, Tau40 assay (ThT)": "7.92 µM"},
      {"binder": "[dR][dL][dW][dV][dR][dW]", "note": "[rlwvrw]", "IC50, Tau40 assay (ThT)": "8.02 µM"},
      {"binder": "[dF][dW][dL][dR][dI][dH][dW][dF]", "note": "[fwlrihwf]", "IC50, Tau40 assay (ThT)": "7.28 µM and 7.56 µM"},
      {"binder": "[dE][dR][dL][dR][dI][dH][dW]", "note": "[erlrihw]", "IC50, Tau40 assay (ThT)": "9.9 µM"},
      {"binder": "[dT][dI][dK][dL][dV][dW]", "note": "[tiklvw]", "IC50, Tau40 assay (ThT)": "13.7 µM and 14.3 µM"},
      {"binder": "[dW][dR][dT][dK][dT][dR][dW]", "note": "[wrtktrw]", "IC50, Tau40 assay (ThT)": "8.93 µM"},
      {"binder": "[dW][dD][dL][dR][dL][dQ][dY][dW]", "note": "[wdlrlqyw]", "IC50, Tau40 assay (ThT)": "8.33 µM and 10.1 µM"},
      {"binder": "[dL][dK][dI][dA][dI][dH][dY][dH]", "note": "[lkiaihyh]", "IC50, Tau40 assay (ThT)": "19.5 µM"},
      {"binder": "[dW][dR][dL][dK][dV]", "note": "[wrlkv]", "IC50, Tau40 assay (ThT)": "15.1 µM"},
      {"binder": "[dF][dE][dL][dE][dI][dE][dW][dH]", "note": "[feleiewh]", "IC50, Tau40 assay (ThT)": "14.3 µM and 19.5 µM"},
      {"binder": "[dL][dK][dR][dR][dI][dH][dY][dH]", "note": "[lkrrihyh]", "IC50, Tau40 assay (ThT)": "15.4 µM"},
      {"binder": "[dF][dK][dL][dH][dL][dK][dH][dY]", "note": "[fklhlkhy]", "IC50, Tau40 assay (ThT)": "7.19 µM and 7.53 µM"},
      {"binder": "[dK][dL][dK][dI][dV][dW]", "note": "[klkivw]", "IC50, Tau40 assay (ThT)": "6.9 µM"}
    ]},
    {"target": "T1, Tau40 P301L protein (human)", "T1 sequence": "WIKIRR", "test": "cell-based or functional assay", "units": {"IC50, Tau40 assay (ThT)": "µM"}, "values": [
      {"binder": "[dNle][dK][dI][dR][dI][dH][dY]", "note": "[ukirihy (PEPTIDE ID NO: 203)]", "IC50, Tau40 assay (ThT)": 0.73},
      {"binder": "[dNle][dR][dL][dK][dV][dR][dW]", "note": "[urlkvrw (PEPTIDE ID NO: 282)]", "IC50, Tau40 assay (ThT)": 1.63},
      {"binder": "[dCha][dR][dL][dK][dV][dR][dW]", "note": "[brlkvrw (PEPTIDE ID NO: 293)]", "IC50, Tau40 assay (ThT)": 1.82},
      {"binder": "[dL][dK][dNle][dR][dNle][dH][dY]", "note": "[lkuruhy (PEPTIDE ID NO: 287)]", "IC50, Tau40 assay (ThT)": 1.65},
      {"binder": "[dW][dR][dCha][dK][dV][dR][dW]", "note": "[wrbkvrw (PEPTIDE ID NO: 286)]", "IC50, Tau40 assay (ThT)": 1.65},
      {"binder": "[dL][dK][dNle][dR][dI][dH][dY]", "note": "[lkurihy (PEPTIDE ID NO: 279)]", "IC50, Tau40 assay (ThT)": 1.59},
      {"binder": "[dL][dK][dCha][dR][dI][dH][dY]", "note": "[lkbrihy (PEPTIDE ID NO: 252)]", "IC50, Tau40 assay (ThT)": 1.16},
      {"binder": "[dW][dR][dNle][dK][dV][dR][dW]", "note": "[wrukvrw (PEPTIDE ID NO: 258)]", "IC50, Tau40 assay (ThT)": 1.25},
      {"binder": "[dL][dK][dI][dR][dNle][dH][dY]", "note": "[lkiruhy (PEPTIDE ID NO: 267)]", "IC50, Tau40 assay (ThT)": 1.43}
    ]}
  ]
}
